Results as given in PMC8651296.

Columns and labels:
[1] = biological target: ctSTIM1 cysteine mutant at position 337 (C437S background) (human) (UniProt Q13586); experiment: FRET or BRET; single-molecule FRET (TIRF), symmetric inter-subunit: one cysteine mutant labelled with Alexa Fluor 555 and 647 mixed 1:1; single ctSTIM1 dimers in liposomes tethered by biotin-neutravidin; 20/150 TBS pH 7.4, room temperature
[2] = biological target: ctSTIM1 cysteine mutant at position 312 (C437S background) (human) (UniProt Q13586); experiment: as above

| inter-subunit FRET efficiency [1] | inter-subunit FRET efficiency [2] | Substance |
| --- | --- | --- |
| 0.9 |  | ctSTIM1 cysteine mutant at position 337 (C437S background) (from UniProt Q13586 233-685) (domain or fragment) |
|  | 0.9 | ctSTIM1 cysteine mutant at position 312 (C437S background) (from UniProt Q13586 233-685) (domain or fragment) |
